FireProtDB (doi:10.1021/bi00009a043)
Values joined by “and” are separate entries in the source; they are usually repeats but may differ in a detail not shown here. Equal values may be shown once.

Details: Danio rerio; pH 8; Thermal; DSC; Tris 20 mM; KCl 0.6 M; transition: 3; reversible: no

Tropomyosin alpha-1 chain wild type, P13104, sequence (P13104 whole entry): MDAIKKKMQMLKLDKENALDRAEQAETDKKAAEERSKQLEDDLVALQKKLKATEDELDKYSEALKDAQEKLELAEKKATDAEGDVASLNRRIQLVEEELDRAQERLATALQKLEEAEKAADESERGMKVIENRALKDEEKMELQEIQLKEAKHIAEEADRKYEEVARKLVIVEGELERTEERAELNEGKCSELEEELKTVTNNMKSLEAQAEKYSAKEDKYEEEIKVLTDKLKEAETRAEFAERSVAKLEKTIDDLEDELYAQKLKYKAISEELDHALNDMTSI

Question: For “Tropomyosin alpha-1 chain wild type, P13104”, which “unfolding enthalpy (van 't Hoff)” value is on record?
Answer: 118 kcal/mol and 124 kcal/mol and 151 kcal/mol
